Our source for the Kd values is article PMC11187062.

The chains are these.
B1: human DPPA3, residues 81–118 (recombinant) [human] / human UHRF1 PHD finger, residues 299–366 [human] (parent)
chain 1: SRRGVRTLLSVQREKMARLRYMLLGGVRTHERRPTNKE
chain 2: GPSCKHCKDDVNRLCRVCACHLCGGRQDPDKQLMCDECDMAFHIYCLDPPLSSVPSEDEWYCPECRND

A word on the Kd: it is a measure of binding affinity in units of concentration.

The variants in the test derive from B1. Put plainly: ITC. Particulars: with human UHRF1 PHD finger.
Regarding chain 1 SRRGARTLLSVQREKMARLRYMLLGGVRTHERRPTNKE [chain 1 V5A], the Kd was found to be 1.61 µM.
